What all share (assay): two-hybrid library CCmax;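 further: natural log of median RNA to DNA barcode read ratio; higher means stronger binding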
The target of experiment [1] is T1, 4H1109-AA.
T1 chain: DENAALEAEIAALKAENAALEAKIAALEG
As to conditions: mean of both orientations.

The target in experiment [2] is T2, 4H675-AA.
T2 chain: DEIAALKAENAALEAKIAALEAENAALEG
The conditions noted are these: mean of both orientations.

Experiment [3] concerns the target T3, 4H1854-AA.
T3 chain: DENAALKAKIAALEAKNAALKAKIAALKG
As to conditions: mean of both orientations.

Experiment [4] concerns the target T4, 4H3066-AA.
T4 chain: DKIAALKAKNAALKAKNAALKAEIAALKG
The conditions noted are these: mean of both orientations.

In experiment [5] the target is T5, 4H3029-AA.
T5 chain: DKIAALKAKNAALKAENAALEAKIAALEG
The conditions noted are these: mean of both orientations.

In experiment [6] the target is T6, 4H971-AA.
T6 chain: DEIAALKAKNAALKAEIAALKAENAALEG
The conditions noted are these: mean of both orientations.

The target of experiment [7] is T7, 4H2713-AA.
T7 chain: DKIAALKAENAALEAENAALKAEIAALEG
The conditions noted are these: mean of both orientations.

For experiment [8], the target named is T8, 4H2991-AA.
T8 chain: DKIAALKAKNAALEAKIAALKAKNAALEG
The conditions noted are these: mean of both orientations.

In experiment [9] the target is T9, 4H1348-AA.
T9 chain: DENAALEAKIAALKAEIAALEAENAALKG
As to conditions: mean of both orientations.

In experiment [10] the target is T10, P5-AA-12HGe-A.
T10 chain: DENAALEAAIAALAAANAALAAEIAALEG
As to conditions: mean of both orientations.

The target in experiment [11] is T11, P5-AA-1HAA-T.
T11 chain: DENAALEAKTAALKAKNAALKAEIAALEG

Experiment [12] deals with T12, P5-AA-1HAA-E.
T12 chain: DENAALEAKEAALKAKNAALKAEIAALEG
As to conditions: mean of both orientations.

Experiment [13] concerns the target T13, P5-AA-12HGe-D.
T13 chain: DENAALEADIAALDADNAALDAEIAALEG
As to conditions: mean of both orientations.

The target of experiment [14] is T14, P5-AA-1HGe-A.
T14 chain: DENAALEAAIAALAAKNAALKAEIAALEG
As to conditions: mean of both orientations.

Experiment [15] deals with T15, P5-AA-1HAA-R.
T15 chain: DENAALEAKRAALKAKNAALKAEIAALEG
The conditions noted are these: mean of both orientations.

Experiment [16] has as its target T16, Core_NIIN-es_KEKK.
T16 chain: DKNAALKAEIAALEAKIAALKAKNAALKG

Experiment [17] deals with T17, P6-AA-12HGe-A.
T17 chain: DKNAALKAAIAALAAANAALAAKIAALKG
As to conditions: mean of both orientations.

Experiment [18] concerns the target T18, P6-AA-12HGe-M.
T18 chain: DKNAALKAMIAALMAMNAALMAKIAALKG
The conditions noted are these: mean of both orientations.

The target in experiment [19] is T19, P6-AA-1HGe-R.
T19 chain: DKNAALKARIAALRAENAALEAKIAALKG
The conditions noted are these: mean of both orientations.

Experiment [20] concerns the target T20, P6-AA-1HAA-L.
T20 chain: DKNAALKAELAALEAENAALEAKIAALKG
The conditions noted are these: mean of both orientations.

In experiment [21] the target is T21, P6-AA-12HGe-H.
T21 chain: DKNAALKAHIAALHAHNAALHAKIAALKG
As to conditions: mean of both orientations.

Experiment [22] deals with T22, 4H3094-AA.
T22 chain: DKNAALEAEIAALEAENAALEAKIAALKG
The conditions noted are these: mean of both orientations.

Experiment [23] addresses T23, 4H2760-AA.
T23 chain: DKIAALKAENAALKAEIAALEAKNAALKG
The conditions noted are these: mean of both orientations.

For experiment [24], the target named is T24, 4H87-AA.
T24 chain: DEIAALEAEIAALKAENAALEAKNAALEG
As to conditions: mean of both orientations.

In experiment [25] the target is T25, 4H1405-AA.
T25 chain: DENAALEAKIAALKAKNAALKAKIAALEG
The conditions noted are these: mean of both orientations.

Experiment [26] addresses T26, 4H2238-AA.
T26 chain: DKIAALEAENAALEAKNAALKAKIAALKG
As to conditions: mean of both orientations.

For experiment [27], the target named is T27, 4H3605-AA.
T27 chain: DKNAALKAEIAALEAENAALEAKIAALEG
The conditions noted are these: mean of both orientations.

The target of experiment [28] is T28, 4H2614-AA.
T28 chain: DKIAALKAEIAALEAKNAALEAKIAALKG
As to conditions: mean of both orientations.

Experiment [29] concerns the target T29, 4H3940-AA.
T29 chain: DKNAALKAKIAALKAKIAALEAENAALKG
The conditions noted are these: mean of both orientations.

The target in experiment [30] is T30, 4H3409-AA.
T30 chain: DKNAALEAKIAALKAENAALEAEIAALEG
The conditions noted are these: mean of both orientations.

In experiment [31] the target is T31, P6-AA-12HAA-K.
T31 chain: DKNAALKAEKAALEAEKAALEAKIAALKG
The conditions noted are these: mean of both orientations.

Experiment [32] addresses T32, P6-AA-12HAA-Y.
T32 chain: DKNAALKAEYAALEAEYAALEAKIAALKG
The conditions noted are these: mean of both orientations.

Experiment [33] has as its target T33, P6-AA-12HAA-V.
T33 chain: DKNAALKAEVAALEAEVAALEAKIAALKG
The conditions noted are these: mean of both orientations.

Experiment [34] addresses T34, O3-AA.
T34 chain: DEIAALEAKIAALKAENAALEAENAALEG
As to conditions: mean of both orientations.

For experiment [35], the target named is T35, 4H2148-AA.
T35 chain: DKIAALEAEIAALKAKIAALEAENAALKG
As to conditions: mean of both orientations.

Experiment [36] has as its target T36, 4H716-AA.
T36 chain: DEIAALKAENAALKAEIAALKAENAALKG
The conditions noted are these: mean of both orientations.

The target of experiment [37] is T37, APC4264-AA.
T37 chain: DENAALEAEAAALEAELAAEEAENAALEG
The conditions noted are these: mean of both orientations.

The target of experiment [38] is T38, APC4436-AA.
T38 chain: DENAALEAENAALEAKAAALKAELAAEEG
As to conditions: mean of both orientations.

In experiment [39] the target is T39, 4H2721-AA.
T39 chain: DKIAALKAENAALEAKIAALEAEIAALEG
The conditions noted are these: mean of both orientations.

In experiment [40] the target is T40, 4H535-AA.
T40 chain: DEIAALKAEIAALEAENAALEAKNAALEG
As to conditions: mean of both orientations.

In experiment [41] the target is T41, 4H895-AA.
T41 chain: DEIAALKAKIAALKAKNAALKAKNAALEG
The conditions noted are these: mean of both orientations.

For experiment [42], the target named is T42, 4H486-AA.
T42 chain: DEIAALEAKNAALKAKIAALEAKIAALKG
The conditions noted are these: mean of both orientations.

As for DENAALEAEIAALEAKIAALEAKNAALKG [4H1064-AA], the interaction score in [1] is -1.24; in [2], -1.16; in experiment [3], -1.4; in experiment [4], -1.4; in [5], -1.16; in [6], -1.08. The interaction score in [7] was -1.48; in [8] it was -0.846; in experiment [9], 1.13.

With DKNAALKAEIAALEAENAALEAKIAALKG [4H3606-AA], the interaction score in [10] was 0.833; in [11], 1.75; in experiment [12] it was 1.24; in experiment [13] it was -1.24; in [14] it was 2.06; in experiment [15], 2.

In experiment [16], DENAALEAENAALEAEIAALEAEIAALEG [4H1153-AA] yielded an interaction score of 1.86.

Regarding DENAALEAKIAALKAKNAALKAEIAALEG [4H1401-AA], the interaction score is -0.0521 in experiment [17]; 0.2 in experiment [18]; 1.53 in experiment [19]; 2.1 in [20]; -1.23 in [21].

As for DEIAALEAENAALKAKNAALKAEIAALEG [4H249-AA], the interaction score in experiment [22] was -0.0288; in experiment [23] it was 1.68.

Turning to DENAALEAKIAALKAEIAALEAKIAALKG [4H1350-AA], the interaction score was -0.16 in experiment [24]; -0.893 in experiment [25]; -1.14 in experiment [26]; -0.433 in experiment [27]; -0.142 in experiment [28]; -0.283 in experiment [29]. The molecule also came in with an interaction score in experiment [30] of -1.11.

Turning to DENAALEAKIAALKAKIAALKAEIAALEG [4H1385-AA], the interaction score in experiment [31] stood at 2.03; in experiment [32], 2.29; in experiment [33], 2.15.

For DEIAALEAENAALEAKIAALKAENAALEG [4H171-AA], the interaction score in experiment [34] is -1.73.

In the case of DENAALKAKIAALEAKNAALEAKIAALEG [4H1845-AA], the interaction score in [35] is -1.61; in [36], -1.81; in [37], -1.79; in [38] it was -1.83.

For DENAALEAENAALKAKIAALKAEIAALEG [4H1257-AA], the interaction score was 1.02 in experiment [39], -1.14 in [40], -1.61 in experiment [41] and 1.54 in experiment [42].

The values above are taken from paper PMC10397247.
